Assay results published in the nanobody polyreactivity screen of Harvey et al. (2022).

Experiment: yeast display, Sf9 membrane polyspecificity reagent, FACS + sequencing; frameworks hold sequencing errors
Outline: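 A nanobody's polyreactivity label depends on the gate it was sorted from. Yeast display cells were stained with 10% biotinylated, detergent-solubilized Sf9 membrane reagent for 1 hour at 4 °C, enriched on streptavidin microbeads and sorted by FACS. The low and high (top ~1%) gates were set on anti-HA fluorescence for expression and streptavidin fluorescence for reagent binding.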

| Sequence | polyreactivity (PSR sort gate) |
| --- | --- |
| QVQLVESGGGLVQAGGSLRLSCAASGSIFIPNAMGWYRQAPGKERELVAAISLSDTTTYYADSVKGRFTISRDNAKNTVYLQMNSLKPEDTAVYYCAADYWFYPTSPVMDYWGQGTQVTVSS | low polyreactivity |
| QVQLVESGGGLVQAGGSLRLSCAASGSIFIPYAMGWYRQAPGKERELVAAISGSGGSTYYADSVKGRFTISRDNAKNTVYLQMNSLKPEDTAVYYCNAVYRRSKYYFSQGYDYWGQGTQVTVSS | high polyreactivity |
| QVQLVESGGGLVQAGGSLRLSCAASGSIFIPYAMGWYRQAPGKETELVAAISSSGSSYYADSVKGRFTISRDNAKNTVYLQMNSLKPEDTAVYYCAAERHYSYSSYDYWGQGTQVTVSS | low polyreactivity |
| QVQLVESGGGLVQAGGSLRLSCAASGSIFIRNAMGWYRQAPGKERELVAAISGSGSSTYYADSVKGRFTISRDNAKNTVYLQMNSLKPEDTSVYYCNTDRNHSYQYGGYDYWGQGTQVTVSS | low polyreactivity |
| QVQLVESGGGLVQAGGSLRLSCAASGSIFIRNAMGWYRQAPGKERELVAAITSRGGSRYYADSVKGRFTISRDNAKNTVYLQMNSLKPEDTSVYYCARRYYGLYDYWGQGTQVTVSS | low polyreactivity |
| QVQLVESGGGLVQAGGSLRLSCAASGSIFIRNAMGWYRQAPGKERELVAANSGSGSSTYYADSVKGRFTNSRDNAKNTVYLQMNSVKPEDTAVYYCNTDRTLSYQYGGYDYWGLGTQVTVSS | low polyreactivity |
| QVQLVESGGGLVQAGGSLRLSCAASGSIFISNAMGWYRQAPGKERELVAAISSSGGRTYYADSVKGRFTISRDNAKNTVYLQMNSLKPEDTAVYYCAVRGLYQGRRRYSSEYDYWGQGTQVTVSS | high polyreactivity |
| QVQLVESGGGLVQAGGSLRLSCAASGSIFITNAMGWYRQAPGKERELVAGITSGGSTYYADSVKGRFTISRDNAKNTFYLQMNSLKPEDTAVYYCAADGVTVTADEYDYWGHGTQVTVSS | low polyreactivity |
| QVQLVESGGGLVQAGGSLRLSCAASGSIFITNAMGWYRQAPGKERELVATITDSGGSTYYADSVKGRFTISRDNAKNTVYLQMNSLKPEDTAVYYGAKDRVYLTRVYHYDYWGQGTQVTVSS | low polyreactivity |
| QVQLVESGGGLVQAGGSLRLSCAASGSIFITYAMGWYRQAHGKERELVAAIRDSGDRTYYADSVKGRFTISRDNAKNTVYLQMNSLKPEDTAVYYCNKDIERYVRIYDSWGQGTQVTVSS | low polyreactivity |
| QVQLVESGGGLVQAGGSLRLSCAASGSIFITYAMGWYRQAPGKERELVAAIRDSGDRTYYADSVKGRFTISRDNAKKTVYLQMNSLKPEDTAVYYCAARIWTGRGRKLGYGYDYWGQGTQVTVSS | low polyreactivity |
| QVQLVESGGGLVQAGGSLRLSCAASGSIFITYAMGWYRQAPGKERELVAAIRDSGDRTYYADSVKGRFTISRDYAKNTVYLQMNSLKPEDTAVYYCNARWQEPLKYDYWGQGTQVTVSS | low polyreactivity |
| QVQLVESGGGLVQAGGSLRLSCAASGSIFITYAMGWYRQAPGKERELVAAIRRGGRTNYADSVKGRFTISRDNAKNTVYLQMNSLKPEDTAVYYCAAEFRTGWPYYPDYAYDYWGQGTQVTVSS | low polyreactivity |
| QVQLVESGGGLVQAGGSLRLSCAASGSIFITYDMGWYRQAPGKERELVAAISSVGRTTYADSVKGRFTISRDNAKNTVYLQMNSLKTEDTAVYYCAVVGRSSHNVRTYGYWGQGTQVTVTS | low polyreactivity |
| QVQLVESGGGLVQAGGSLRLSCAASGSIFIVYAMGWYRQAPGKERELVAAISWSGGSTYYADSVKGRFTISRDNAKNTVYLQMNSLNPEDTAVYYCDAKYTLPFRDVKYYSWGQGTQVTVSS | high polyreactivity |
| QVQLVESGGGLVQAGGSLRLSCAASGSIFIYNAMGWYRQAPGKERELVAAISSSGGSTYYADSVKGRFTISRDNAKNTVYLQMNSLKPEDTAVYYCAARTYYVRGLGGRPGMDYCGQGTQVTVSS | low polyreactivity |
| QVQLVESGGGLVQAGGSLRLSCAASGSIFIYNAMGWYRQAPGKERELVAAISSSGGSTYYADSVKGRFTISRDNAKNTVYLQMNSLNPEDTAVSYCAARTYYVRGLGGRPGMDYWGQGTQVTVSS | low polyreactivity |
| QVQLVESGGGLVQAGGSLRLSCAASGSIFKANGMGWYRQAPGKEREFVAAITRSGATTYYADSVKGRFTISRDNAKNTVYLQMNSLKPEDTAVYYCNVKAWRDLYYAGFDYWGQGTQVTVSS | low polyreactivity |
| QVQLVESGGGLVQAGGSLRLSCAASGSIFKDNAMGWYRQAPGKERELVAAITSGASTNYADSVKGRFTISRDNAKNTVYLQMNSLKPEVTAVYYCAAVLAGGVYWVVHYDYWGQGTQVTVSS | low polyreactivity |
| QVQLVESGGGLVQAGGSLRLSCAASGSIFKGNAMGCYRQAPWKESEMVAAISGGGGSTYYADSVKGRFTISRDNAKNTVYLQMYSLKPEDTAVYYCAARYYESPGDRSGFRYGYWGQGTQVTVSS | high polyreactivity |
| QVQLVESGGGLVQAGGSLRLSCAASGSIFKGNVMGWYRQAPGKERELVAAITWSGGSTYYADSVKGRFTISRDNAKNTVYLQMNSLKPEDTAVYYCNTDRYHRVDFDYWGQGTQVTVSS | high polyreactivity |
| QVQLVESGGGLVQAGGSLRLSCAASGSIFKGYAMGWYRQAPGKERELVAAISSSGGSTYYADSVKGRFTISRDNAKNTVYLQMNSLKPEDTAVYYCNTDRYYTYDYWGQGTQVTVSS | low polyreactivity |

| Sequence | polyreactivity (PSR sort gate) |
| --- | --- |
| QVQLVESGGGLVQAGGSLRLSCAASGSIFKIYAMGWYRQAPGKERELVARITRRGGRTNYADSVKGRFTISRDNAKNTVYLQMNSLKPEDTAVYYCASLGRRGGDYWGQGTQVTVAS | high polyreactivity |
| QVQLVESGGGLVQAGGSLRLSCAASGSIFKKYAMGWYRQAPGKERELVAAISSTGGSTKYADSVKGRFTISRDNAKNTVYLQMNSLKPEDTAVYYCAVRYKWPYDYWGQGTQVTVSS | high polyreactivity |
| QVQLVESGGGLVQAGGSLRLSCAASGSIFKKYAMGWYRQAPGKERELVAAISSTGGSTKYADSVKGRFTISRDNAKNTVYLQMNSLKPEDTAVYYCNAPGLRDYDAEYDYWGQGTQVTVSS | high polyreactivity |
| QVQLVESGGGLVQAGGSLRLSCAASGSIFKKYAMGWYRQAPGKERELVAAISSVGGTYYADSVKGRFTISRDNAKNTVYLQMNSLKPEDTAVYYWYTDGYVGSIRSGLYIYDYWGQGTQVTVSS | low polyreactivity |
| QVQLVESGGGLVQAGGSLRLSCAASGSIFKKYAMGWYRQAPGKERELVAAITRGTYYADSVKGRFTISRDNAKNTVYLQMNSLKPEDTAVYYCNREYWGRGYYRVRGEYDYWGQGTQVTVSS | low polyreactivity |
| QVQLVESGGGLVQAGGSLRLSCAASGSIFKLNAMGWYRQAPGKERELVAAITFSDGSTNYADSVKGRFTISRDNAKNTVYLQMNSLKPEDTAVYYCAAEFYYRTQWYYYWGQGTQVTVSS | high polyreactivity |
| QVQLVESGGGLVQAGGSLRLSCAASGSIFKLYALGWYRPAPGKERELVAAISLSDGGTYYADSVKGRFTISRDNPKNTVYLQMNSLKPEDTAVYYCNKYYWYPYGRAHDYGYWGQGTQVTVSS | high polyreactivity |
| QVQLVESGGGLVQAGGSLRLSCAASGSIFKNYAMGWSRQSPGKERELVASITTGASTNYADSVKGRFTISRDNAKNTVYLQMNSLKPEDTAVYYCNADRYYSHYSYYYWGQGTQVTVSS | high polyreactivity |
| QVQLVESGGGLVQAGGSLRLSCAASGSIFKNYAMGWYRQAPGKERELVASITTGASTNYADSVKGRFTISRDNAKNTVYLQMNSLKPEDTAVYYCAKGGRTFRYFVAPRTFDHGYWGQGTQVTVSS | high polyreactivity |
| QVQLVESGGGLVQAGGSLRLSCAASGSIFKPYAMGWYRQAPGKERELVAAISSSGGSTYYADSVKGRFTISRDNAKNTVYFQMNSLKPEDTAVYYCNADWYYAGYGYWGQGTQVTVSS | low polyreactivity |
| QVQLVESGGGLVQAGGSLRLSCAASGSIFKQNAMGWYRQAPGKDRELVASIRASGDRTYYADSVKGRFTISRDNAKNTVYLQMNSLKPEDTAVYYCAARRVRTRGYNYWGQGTQVTVSS | high polyreactivity |
| QVQLVESGGGLVQAGGSLRLSCAASGSIFKQNAMGWYRQAPGKERELVADITSSGGSTYYADSVKGRFTISRDNAKNTVYLQMNSLKPEDTAVYYCAADGNGVDYDYWGQGTQVTVSS | low polyreactivity |
| QVQLVESGGGLVQAGGSLRLSCAASGSIFKQYVMGWYRQAPGKEREFVARISKSGGSTYYADSVKGRFTISRDNAKNTVYLQMNSLKPEDTAVYYCAVASKQALQPWYDYWGQGTQVTVSS | high polyreactivity |
| QVQLVESGGGLVQAGGSLRLSCAASGSIFKRNAMGWYRQAPGKERELVASISSGGSTHYADSVKGRFTISRDNAKNTVYLQMNSLKPEDTAVYYCAADSSWYVLYGSYYRSGLDYWGQGTQVTVSS | low polyreactivity |
| QVQLVESGGGLVQAGGSLRLSCAASGSIFKRYAMGRYRQAPGKERELVAAISYSGTSTYYADSVKGRFTISRDTAKNTVYLQMNSLKPEDTAVYYCNKVPGYRHYLGYPGRYGYWGQGTQVTVSS | high polyreactivity |
| QVQLVESGGGLVQAGGSLRLSCAASGSIFKRYAMGWYRQAPGKERELVARISRRGGTYYADSVKGRFTISRDNAKNTVYLQMNSLKPEDTAVYYCNANVIFADNNDRDYWGQGTQVTVSS | low polyreactivity |
| QVQLVESGGGLVQAGGSLRLSCAASGSIFKRYTMGWYRQAPGKERELVASIRSRAGNTYYADSVKGRFTISRDNAKNTVYLQMNSLKPEDTAVYYCAVSAWGYYRTSYGYWGQGTQVTVSS | high polyreactivity |
| QVQLVESGGGLVQAGGSLRLSCAASGSIFKSYAMGWYRKAPGKERELVAAITWRSGRTYYADSLKGRFTISRDNAKNTVYLQMNSLKPEDTAVYYCAAELVSVRYLYALHDRDYWGKGTQVTVSS | low polyreactivity |
| QVQLVESGGGLVQAGGSLRLSCAASGSIFKSYAMGWYRQAPGKERELVAAISWSGTSTYYADSVKGRFTISRDNAKNTVYLQMNSLKPEDTAVYDCAASGDYGEYGYWGQGTQVTVSS | low polyreactivity |
| QVQLVESGGGLVQAGGSLRLSCAASGSIFKSYAMGWYRQAPGKERELVAAITWRSGRTYYADSVKGRFTISRDNAKNTVYLQMTSLKPEDTAVYYCAADDTSYYIYSYDYWGQGTQVTVSS | low polyreactivity |
| QVQLVESGGGLVQAGGSLRLSCAASGSIFKTYAMGWYRQAPGKERELVAAISWRGGSTYYADSVKGRFTISRDNAKNTVYLEMNSLKPEDTAVYYCAAGRKFGTRTLWYRYGYWGQGTQVTVSS | high polyreactivity |
